In patent publication US20110076693:

Target: GST-PBIPtide-A6 [GST: P08515]

B1: Flag-Plk3 (protein)
chain: MEPAAGFLSPRPFQRAAAAPAPPAGPGPPPSALRGPELEMLAGLPTSDPGRLITDPRSGRTYLKGRLLGKGGFARCYEATDTETGSAYAVKVIPQSRVAKPHQREKILNEIELHRDLQHRHIVRFSHHFEDADNIYIFLELCSRKSLAHIWKARHTLLEPEVRYYLRQILSGLKYLHQRGILHRDLKLGNFFITENMELKVGDFGLAARLEPPEQRKKTICGTPNYVAPEVLLRQGHGPEADVWSLGCVMYTLLCGSPPFETADLKETYRCIKQVHYTLPASLSLPARQLLAAILRASPRDRPSIDQILRHDFFTKGYTPDRLPISSCVTVPDLTPPNPARSLFAKVTKSLFGRKKKSKNHAQERDEVSGLVSGLMRTSVGHQDARPEAPAASGPAPVSLVETAPEDSSPRGTLASSGDGFEEGLTVATVVESALCALRNCIAFMPPAEQNPAPLAQPEPLVWVSKWVDYSNKFGFGYQLSSRRVAVLFNDGTHMALSANRKTVHYNPTSTKHFSFSVGAVPRALQPQLGILRYFASYMEQHLMKGGDLPSVEEVEVPAPPLLLQWVKTDQALLMLFSDGTVQVNFYGDHTKLILSGWEPLLVTFVARNRSACTYLASHLRQLGCSPDLRQRLRYALRLLRDRSPA
in vitro kinase assay of Flag immunoprecipitates, 32P incorporated into GST-PBIPtide-A6: Plk1, but not Plk2 or Plk3, phosphorylates and binds to the T78 motif of PBIPtides

B2: Flag-Plk2 (protein)
chain: MELLRTITYQPAASTKMCEQALGKGCGADSKKKRPPQPPEESQPPQSQAQVPPAAPHHHHHHSHSGPEISRIIVDPTTGKRYCRGKVLGKGGFAKCYEMTDLTNNKVYAAKIIPHSRVAKPHQREKIDKEIELHRILHHKHVVQFYHYFEDKENIYILLEYCSRRSMAHILKARKVLTEPEVRYYLRQIVSGLKYLHEQEILHRDLKLGNFFINEAMELKVGDFGLAARLEPLEHRRRTICGTPNYLSPEVLNKQGHGCESDIWALGCVMYTMLLGRPPFETTNLKETYRCIREARYTMPSSLLAPAKHLIASMLSKNPEDRPSLDDIIRHDFFLQGFTPDRLSSSCCHTVPDFHLSSPAKNFFKKAAAALFGGKKDKARYIDTHNRVSKEDEDIYKLRHDLKKTSITQQPSKHRTDEELQPPTTTVARSGTPAVENKQQIGDAIRMIVRGTLGSCSSSSECLEDSTMGSVADTVARVLRGCLENMPEADCIPKEQLSTSFQWVTKWVDYSNKYGFGYQLSDHTVGVLFNNGAHMSLLPDKKTVHYYAELGQCSVFPATDAPEQFISQVTVLKYFSHYMEENLMDGGDLPSVTDIRRPRLYLLQWLKSDKALMMLFNDGTFQVNFYHDHTKIIICSQNEEYLLTYINEDRISTTFRLTTLLMSGCSSELKNRMEYALNMLLQRCN
in vitro kinase assay of Flag immunoprecipitates, 32P incorporated into GST-PBIPtide-A6: Plk1, but not Plk2 or Plk3, phosphorylates and binds to the T78 motif of PBIPtides
